We go through five substances from patent US20250019737A1.

Experiment [1] deals with nDHFR-linker 1-His6-Ub (pND-Ub) (mouse) (UniProt P00375).
Experiment [2] has the same target. Description: cell-based or functional assay.

Chain of vWA Q149R (P00375 whole entry, stated change not applied): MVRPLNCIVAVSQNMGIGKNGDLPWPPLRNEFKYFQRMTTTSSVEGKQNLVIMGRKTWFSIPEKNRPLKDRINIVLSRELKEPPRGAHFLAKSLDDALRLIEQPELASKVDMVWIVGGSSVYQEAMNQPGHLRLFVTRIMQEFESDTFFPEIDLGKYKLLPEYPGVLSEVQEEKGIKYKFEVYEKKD
Chain of vWA T173,175R (P00375 whole entry): as the sequence (P00375 whole entry, stated change not applied) above
Chain of vWA Q149A (P00375 whole entry, stated change not applied): as above
Chain of vWA (P00375 whole entry): as the sequence (P00375 whole entry, stated change not applied) above

In turn, vWA T173,175R (from UniProt P00375) returned a Growth efficiency (max growth density divided by the time of half max growth); number matched to the legend entry by its order in the column and its grey tone in experiment [1] of 62.

Regarding “cDHFR-Vps9 (pCD-Sub) (from UniProt P00375 109-187; P54787 1-451)”, the bacterial growth on trimethoprim, split DHFR, incomplete ubiquitination cascade (ΔE1, ΔE2) in experiment [2] was found to be 0.1 µg/mL.

For the substance vWA Q149R (from UniProt P00375), the Growth efficiency (max growth density divided by the time of half max growth); number matched to the legend entry by its order in the column and its grey tone in experiment [1] came out at 516.

Regarding vWA (from UniProt P00375), the Growth efficiency (max growth density divided by the time of half max growth); number matched to the legend entry by its order in the column and its grey tone in experiment [1] was determined as 1230.

Regarding vWA Q149A (from UniProt P00375), the Growth efficiency (max growth density divided by the time of half max growth); number matched to the legend entry by its order in the column and its grey tone in experiment [1] worked out at 715.
